# According to the supplement of paper PMC10567573:
# B1: DFFB (parent)
# chain: TLVEAIKEQDGREVDWEYFYGLLF
# Variants of: B1
# Assay: protein stability index of a GFP-peptide fusion (GPS, HEK-293T) (PSI 1-6); higher = more stable
# Conditions: c terminus: a fixed tail appended
# 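Note: lentivirally expressed fusions sorted by FACS into six bins by GFP to DsRed ratio, PSI derived from sequencing read proportions per bin multiplied by bin number.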
row,Variant,protein stability index
1,FLVEAIKEQDGREVDWEYFYGLLF [T1F],2.56
2,GLVEAIKEQDGREVDWEYFYGLLF [T1G],2.05
3,ALVEAIKEQDGREVDWEYFYGLLF [T1A],2.32
4,YLVEAIKEQDGREVDWEYFYGLLF [T1Y],2.13
5,HLVEAIKEQDGREVDWEYFYGLLF [T1H],1.89
6,WLVEAIKEQDGREVDWEYFYGLLF [T1W],1.65
7,ELVEAIKEQDGREVDWEYFYGLLF [T1E],2.9
8,DLVEAIKEQDGREVDWEYFYGLLF [T1D],2.24
9,KLVEAIKEQDGREVDWEYFYGLLF [T1K],2.37
10,MLVEAIKEQDGREVDWEYFYGLLF [T1M],1.31
11,VLVEAIKEQDGREVDWEYFYGLLF [T1V],3.13
12,PLVEAIKEQDGREVDWEYFYGLLF [T1P],2.54
13,NLVEAIKEQDGREVDWEYFYGLLF [T1N],2.02
14,LLVEAIKEQDGREVDWEYFYGLLF [T1L],1.58
15,QLVEAIKEQDGREVDWEYFYGLLF [T1Q],2.37
16,RLVEAIKEQDGREVDWEYFYGLLF [T1R],1.59
17,SLVEAIKEQDGREVDWEYFYGLLF [T1S],1.41
18,TLGEAIKEQDGREVDWEYFYGLLF [V3G],1.58
19,TLSEAIKEQDGREVDWEYFYGLLF [V3S],3.22
20,TLAEAIKEQDGREVDWEYFYGLLF [V3A],1.95
21,TLNEAIKEQDGREVDWEYFYGLLF [V3N],2.21
22,TLKEAIKEQDGREVDWEYFYGLLF [V3K],2.88
23,TLIEAIKEQDGREVDWEYFYGLLF [V3I],3.34
24,TLLEAIKEQDGREVDWEYFYGLLF [V3L],2.22

row,Variant,protein stability index
1,TLEEAIKEQDGREVDWEYFYGLLF [V3E],2.86
2,TLQEAIKEQDGREVDWEYFYGLLF [V3Q],1.88
3,TLCEAIKEQDGREVDWEYFYGLLF [V3C],1.94
4,TLPEAIKEQDGREVDWEYFYGLLF [V3P],2.16
5,TLHEAIKEQDGREVDWEYFYGLLF [V3H],2.16
6,TLFEAIKEQDGREVDWEYFYGLLF [V3F],2
7,TLDEAIKEQDGREVDWEYFYGLLF [V3D],2.65
8,TLREAIKEQDGREVDWEYFYGLLF [V3R],2.23
9,TLWEAIKEQDGREVDWEYFYGLLF [V3W],1.76
10,TLTEAIKEQDGREVDWEYFYGLLF [V3T],2.53
11,TLMEAIKEQDGREVDWEYFYGLLF [V3M],2.28
12,TLYEAIKEQDGREVDWEYFYGLLF [V3Y],1.39
13,TLVIAIKEQDGREVDWEYFYGLLF [E4I],1.57
14,TLVLAIKEQDGREVDWEYFYGLLF [E4L],1.93
15,TLVCAIKEQDGREVDWEYFYGLLF [E4C],2.92
16,TLVTAIKEQDGREVDWEYFYGLLF [E4T],1.58
17,TLVAAIKEQDGREVDWEYFYGLLF [E4A],1.37
18,TLVPAIKEQDGREVDWEYFYGLLF [E4P],2.08
19,TLVNAIKEQDGREVDWEYFYGLLF [E4N],2.11
20,TLVDAIKEQDGREVDWEYFYGLLF [E4D],1.68
21,TLVKAIKEQDGREVDWEYFYGLLF [E4K],2.99
22,TLVQAIKEQDGREVDWEYFYGLLF [E4Q],1.97
23,TLVGAIKEQDGREVDWEYFYGLLF [E4G],2.26
24,TLVSAIKEQDGREVDWEYFYGLLF [E4S],2.62

row,Variant,protein stability index
1,TLVHAIKEQDGREVDWEYFYGLLF [E4H],1.97
2,TLVWAIKEQDGREVDWEYFYGLLF [E4W],1.76
3,TLVFAIKEQDGREVDWEYFYGLLF [E4F],2.38
4,TLVVAIKEQDGREVDWEYFYGLLF [E4V],2.87
5,TNVEAIKEQDGREVDWEYFYGLLF [L2N],2.31
6,TYVEAIKEQDGREVDWEYFYGLLF [L2Y],1.71
7,THVEAIKEQDGREVDWEYFYGLLF [L2H],1.92
8,TVVEAIKEQDGREVDWEYFYGLLF [L2V],2.4
9,TRVEAIKEQDGREVDWEYFYGLLF [L2R],2.77
10,TCVEAIKEQDGREVDWEYFYGLLF [L2C],2.16
11,TFVEAIKEQDGREVDWEYFYGLLF [L2F],1.95
12,TPVEAIKEQDGREVDWEYFYGLLF [L2P],2.41
13,TDVEAIKEQDGREVDWEYFYGLLF [L2D],2.17
14,TGVEAIKEQDGREVDWEYFYGLLF [L2G],2.5
15,TEVEAIKEQDGREVDWEYFYGLLF [L2E],3.08
16,TWVEAIKEQDGREVDWEYFYGLLF [L2W],1.92
17,TTVEAIKEQDGREVDWEYFYGLLF [L2T],2.2
18,TIVEAIKEQDGREVDWEYFYGLLF [L2I],2.35
19,TQVEAIKEQDGREVDWEYFYGLLF [L2Q],1.41
20,TMVEAIKEQDGREVDWEYFYGLLF [L2M],2.15
21,TSVEAIKEQDGREVDWEYFYGLLF [L2S],3.15
22,TAVEAIKEQDGREVDWEYFYGLLF [L2A],3.03
23,TLVEAKKEQDGREVDWEYFYGLLF [I6K],2.2
24,TLVEAMKEQDGREVDWEYFYGLLF [I6M],1.94

row,Variant,protein stability index
1,TLVEAYKEQDGREVDWEYFYGLLF [I6Y],1.81
2,TLVEAVKEQDGREVDWEYFYGLLF [I6V],2.25
3,TLVEAWKEQDGREVDWEYFYGLLF [I6W],1.38
4,TLVEASKEQDGREVDWEYFYGLLF [I6S],1.89
5,TLVEAAKEQDGREVDWEYFYGLLF [I6A],2.59
6,TLVEAEKEQDGREVDWEYFYGLLF [I6E],2.58
7,TLVEAHKEQDGREVDWEYFYGLLF [I6H],2.58
8,TLVEAFKEQDGREVDWEYFYGLLF [I6F],2.38
9,TLVEACKEQDGREVDWEYFYGLLF [I6C],2.24
10,TLVEARKEQDGREVDWEYFYGLLF [I6R],2.16
11,TLVEAPKEQDGREVDWEYFYGLLF [I6P],2.17
12,TLVEAQKEQDGREVDWEYFYGLLF [I6Q],2.32
13,TLVEANKEQDGREVDWEYFYGLLF [I6N],2.2
14,TLVEATKEQDGREVDWEYFYGLLF [I6T],2.01
15,TLVEAIMEQDGREVDWEYFYGLLF [K7M],1.72
16,TLVEAICEQDGREVDWEYFYGLLF [K7C],1.98
17,TLVEAIIEQDGREVDWEYFYGLLF [K7I],2.28
18,TLVEAIQEQDGREVDWEYFYGLLF [K7Q],2.16
19,TLVEAINEQDGREVDWEYFYGLLF [K7N],1.51
20,TLVEAIAEQDGREVDWEYFYGLLF [K7A],2.31
21,TLVEAITEQDGREVDWEYFYGLLF [K7T],2.19
22,TLVEAIPEQDGREVDWEYFYGLLF [K7P],2.3
